# Reference: publication PMC8986478 (Immunity, 2022)
# B1: C1621 IgG (antibody, V domains shown)
# VH: EVQLVESGGGLVKPGGSLRLSCAASGFSFNNSNMNWVRQAPGKGLEWVSSISSSSNYIYYVDSVKGRFTISRDNAKNSLYLQMSSLRVEDTAVYYCASAQSSARWGGYYQYAMDVWGQGTTVTVSS
# VL: EIVMTQSPATLSVSPGERATLSCRASQSVSSSLAWYQQKPGQAPRLLIYDASTRATGIPARFSGRGSGTEFTLTISSLQSEDFAVYYCQQYYNWPPWTFGQGTKVEI
# B2: C1520 IgG (antibody, V domains shown)
# VH: EVQLVESGGGLVQPGGSLRLACVASGFTFSIYEMNWVRQAPGKGLEWVSYITTSGHARYNADSVKGRFTISRDNSKNSFYLQMNSLRAEDTAIYYCARPQYHYYDTSTYHSYGFDIWGQGTMVTVSS
# VL: QLVLTQSPSASASLGASVNLTCTLSSGHNSYAIAWHQQQPEKGPRYLMSLNSDGSHTKGDGIPDRFSGSSSGAERFLTISSLQSEDEADYYCQTWDTGIRVFGGGTRLTVL
# B3: C1704 IgG (antibody, V domains shown)
# VH: QVQLVQSGAEVKKPGASVKVSCKVSGYTLTELSIHWVRQAPGKGLEWMGSFDPEDGETICAQKFQGRVTMTEDTSTDTAYMELSSLRSEDTAVYYCATEWRGCSDTSCQGTNWFDPWGQGTLVTVSS
# VL: QPVLTQSPSASASLGASVKLTCTLSSGHSTYAIAWHQQQPEKGPRYLMKLNSDGSHNKGDGIPDRFSGSSSGAERYLTISSLQSEDEADYYCQTWGTGVRVFGGGTKLTVL
# B4: C1717 IgG (antibody, V domains shown)
# VH: QVQLVQSGAEVKKPGSSVKVSCKTSGGTFNSFAINWVRQAPGQGPEWMGRVIPVLEIANYAQKFQGRITITADKSTSTAYMELSSLTSEDTAIYYCARHHIAVAQPYFDYWGQGTLVTVSS
# VL: not shown
# B5: C1557 IgG (antibody, V domains shown)
# VH: QVQLVQSGAEVRKPGASVKVSCKVSGYTLTELSMHWVRQSPGKGLEWMGSFDPDDGETFYAQKFQGRITMSEDTSTDTAYMELSSLRSEDTAVYFCATDSNMIVVRGNYYYSGLDVWGQGTTVTVSS
# VL: EIVMTQSPATLSVSPGERATLSCRASQSVAGNLAWYQQKPGLAPRLLIQGPSTRATGIPARFSGSGSGTEFTLTISSLQSEDFAVYYCHQYNNWPWTFGQGTKVEIK
# B6: C1554 IgG (antibody, V domains shown)
# VH: QVQLVQSGAEVKKPGASVKVSCKVSGYTLPEISIHWVREAPGKGLEWMGGFDPEDGETIYSQRFQGRVTMTEDTSTDTAYMELSSLRSEDTAVYYCAASSPFSGGWFHPWGQGTLVTVSS
# VL: QSALTQPASVSGSPGQSITISCTETSSDVGNYNLVSWYQQHPGKAPKLVIYEGTKRPSGVSNRFSASKSGNTASLTISELQAEDEANYYCCSYARSGVFGGGTKLTVL
# B7: C1791 IgG (antibody, V domains shown)
# VH: EVQLLESGGGLVQPGGSRRLSCAASGFTFSIAAMSWVRQAPGKGLEWVSVISTSGGTSYYADSVRGRFTISRDNSQNTLYLQMNSLSAEDTAIYYCAKDLGSYFPDYWGQGTLVTVSS
# VL: DIQMTQSPSSLSASVGDRVTITCRASQGIRNDIGWYQQKPGKAPKRLIHAASSLQSGVPSRFSGSGSGTEFTLTISSLQPEDFATYYCLQYNSYPRVTFGPGTKVDIK
# Target: SARS-CoV-2 Wuhan-Hu-1 NTD (SARS-CoV-2 Wuhan-Hu-1, UniProt P0DTC2)
# Experiment: BLI
row,Binder,binding result
1,B1,binds
2,B2,binds
3,B3,binds
4,B4,binds
5,B5,binds
6,B6,binds
7,B7,binds
